In publication PMC4813465, “Selective Inhibition of the Mitochondrial Permeability Transition Pore Protects against Neurodegeneration in Experimental Multiple Sclerosis” (The Journal of Biological Chemistry, 2015):

Molecular target: cyclophilin D (CypD, PPIF) with a K133I mutation

half-maximal inhibition of Ca2+-induced PT pore opening, calcium retention capacity (CRC) assay on isolated liver mitochondria: 40 nM
Substance: cyclosporine (cyclosporin A) (peptide)
